From patent US20260167699A1 (Chugai, published 2026)
Like-named read-outs stand apart in the source and are kept apart here.

T1: FcγRIIa(R) extracellular domain with C-terminal His tag (human, UniProt P12318 34-217)
T1 construct: extracellular domain; polymorphic form R131; also called FcγRIIa R type
T1 sequence: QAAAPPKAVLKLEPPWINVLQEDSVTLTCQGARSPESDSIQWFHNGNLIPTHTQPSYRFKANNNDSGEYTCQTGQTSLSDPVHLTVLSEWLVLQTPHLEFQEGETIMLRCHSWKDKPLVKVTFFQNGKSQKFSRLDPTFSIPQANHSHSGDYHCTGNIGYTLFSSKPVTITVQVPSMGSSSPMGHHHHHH

T2: FcγRIIb extracellular domain with C-terminal His tag (human, UniProt P31994 43-217)
T2 construct: extracellular domain
T2 sequence: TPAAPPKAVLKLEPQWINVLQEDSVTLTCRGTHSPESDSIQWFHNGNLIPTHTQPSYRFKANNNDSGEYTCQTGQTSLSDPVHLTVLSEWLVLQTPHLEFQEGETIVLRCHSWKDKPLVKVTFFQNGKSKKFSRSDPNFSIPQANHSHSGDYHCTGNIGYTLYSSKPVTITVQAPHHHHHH

T3: FcγRIIa(H) extracellular domain with C-terminal His tag (human, UniProt P12318 34-217)
T3 construct: extracellular domain; polymorphic form H131; also called FcγRIIa H type
T3 sequence: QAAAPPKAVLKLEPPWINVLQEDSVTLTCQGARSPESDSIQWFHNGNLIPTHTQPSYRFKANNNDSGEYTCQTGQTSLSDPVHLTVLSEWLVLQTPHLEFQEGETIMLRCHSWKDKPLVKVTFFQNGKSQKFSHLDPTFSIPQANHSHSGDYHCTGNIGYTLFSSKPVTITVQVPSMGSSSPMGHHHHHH


Experiments:
Assay in all cases: SPR (Biacore), captured antibody, FcγR analyte, 1:1 Langmuir fit
[1] = molecular target: T1, FcγRIIa(R) extracellular domain with …
Procedure: (§1) The antibody of interest was analyzed for its interaction with FcγR using a BiaCore™ T100, BiaCore™ A100, or BiaCore™ 4000 surface plasmon resonance system (GE Healthcare Japan Corp.). The running buffer used was HBS-EP+ (GE Healthcare Japan Corp.). The assay temperature was set to 25° C. The sensor chips used were: a chip prepared by immobilizing antigenic peptides onto Series S Sensor Chip CM5 (GE Healthcare Japan Corp.) by the amine coupling method; a chip prepared by immobilizing antigenic peptides biotinylated in advance onto Series S Sensor Chip SA (certified) (GE Healthcare Japan Corp.) through their interaction; a chip prepared by immobilizing protein L (ACTIGEN, BioVision, Inc.) onto Series S Sensor Chip CM5 (GE Healthcare Japan Corp.); and a chip prepared by immobilizing protein A/G (Thermo Fisher Scientific K.K.) onto Series S Sensor Chip CM5 (GE Healthcare Japan Corp.). The antibody of interest was captured onto any of these chips and allowed to interact with FcγR diluted with a running buffer. The antibody captured on the chip was washed off through the reaction of 10 mM glycine-HCl (pH 1.5) to regenerate the chip, which was repetitively used.

[2] = molecular target: T4, FcγRIIIa(F) extracellular domain with C-terminal His tag (human, UniProt P08637 17-208)
T4 construct: extracellular domain; polymorphic form F158; also called FcγRIIIa F type
Procedure: as §1

[3] = molecular target: T5, FcγRIIIa(V) extracellular domain with C-terminal His tag (human, UniProt P08637 17-208)
T5 construct: extracellular domain; polymorphic form V158; also called FcγRIIIa V type
Procedure: as §1

[4] = molecular target: T2, FcγRIIb extracellular domain with …
Procedure: as §1

[5] = molecular target: T3, FcγRIIa(H) extracellular domain with …
Procedure: as §1

[6] = molecular target: T6, FcγRIa extracellular domain with C-terminal His tag (human, UniProt P12314 16-292)
T6 construct: extracellular domain
Procedure: as §1

[7] = molecular target: T1, FcγRIIa(R) extracellular domain with …; remark: listed apart in the source
Procedure: as §1

[8] = molecular target: T4, FcγRIIIa(F) extracellular domain with …; remark: listed apart in the source
Procedure: as §1

[9] = molecular target: T5, FcγRIIIa(V) extracellular domain with …; remark: listed apart in the source
Procedure: as §1

[10] = molecular target: T2, FcγRIIb extracellular domain with …; remark: listed apart in the source
Procedure: as §1

[11] = molecular target: T3, FcγRIIa(H) extracellular domain with …; remark: listed apart in the source
Procedure: as §1

[12] = molecular target: T6, FcγRIa extracellular domain with …; remark: listed apart in the source
Procedure: as §1

T5 sequence (P08637 other isoform, or with tags, fused parts or gaps): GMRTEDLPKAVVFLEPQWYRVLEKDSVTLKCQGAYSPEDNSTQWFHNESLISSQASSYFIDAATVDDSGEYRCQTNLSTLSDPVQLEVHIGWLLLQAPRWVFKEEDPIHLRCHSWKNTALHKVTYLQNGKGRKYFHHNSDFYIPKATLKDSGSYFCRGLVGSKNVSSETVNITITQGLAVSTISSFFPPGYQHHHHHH
T4 sequence (P08637 other isoform, or with tags, fused parts or gaps): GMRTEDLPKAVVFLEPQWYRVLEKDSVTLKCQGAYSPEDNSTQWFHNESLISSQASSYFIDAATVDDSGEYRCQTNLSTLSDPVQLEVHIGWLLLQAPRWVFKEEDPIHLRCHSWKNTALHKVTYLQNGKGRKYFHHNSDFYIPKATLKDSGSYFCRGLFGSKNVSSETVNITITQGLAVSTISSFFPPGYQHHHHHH
T6 sequence (P12314 other isoform, or with tags, fused parts or gaps): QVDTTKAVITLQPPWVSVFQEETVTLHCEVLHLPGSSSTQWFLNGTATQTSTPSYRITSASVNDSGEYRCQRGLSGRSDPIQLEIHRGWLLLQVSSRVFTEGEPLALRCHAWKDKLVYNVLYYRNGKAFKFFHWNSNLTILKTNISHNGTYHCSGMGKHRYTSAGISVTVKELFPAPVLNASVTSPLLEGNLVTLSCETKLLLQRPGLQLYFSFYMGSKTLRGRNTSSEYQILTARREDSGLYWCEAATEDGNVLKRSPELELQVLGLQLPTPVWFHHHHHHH

Row | Binder | Kd [1] | Kd [2] | Kd [3] | Kd [4] | Kd [5] | Kd [6] | Kd [7] | Kd [8] | Kd [9] | Kd [10] | Kd [11] | Kd [12]
1 | H240-Kn033/H240-Hl033/L73-k0 (antibody, human IgG1, kappa, anti-epiregulin IgG1, knobs-into-holes control; also called H240-Kn033/H240-HI033/L73-k0) heavy 1: not shown heavy 2: not shown light: DIQMTQSPSSLSASVGDRVTITCRASQDIHKYIAWYQQKPGQAPRLLIQYTSTLQPGVPSRFSGSGSGTDYTFTISSLQPEDIATYYCLQYEQLRTFGGGTKVEIKRTVAAPSVFIFPPSDEQLKSGTASVVCLLNNFYPREAKVQWKVDNALQSGNSQESVTEQDSKDSTYSLSSTLTLSKADYEKHKVYACEVTHQGLSSPVTKSFNRGEC | 1000 nM | 2600 nM | 390 nM | 4100 nM | 930 nM | 0.25 nM | 1000 nM | 2600 nM | 390 nM | 4100 nM | 930 nM | 0.25 nM
2 | H240-Kn125/H240-Hl076/L73-k0 (antibody, human IgG1, kappa, heterodimerized anti-epiregulin IgG1) heavy 1: QDQLVQSGAEVKKPGASVKVSCKASGFNIKDTYIQWVRQAPGQGLEWMGRIDPLRKQTKYREKFEGRVTITADTSTNTAYMELSSLRSEDTAVYYCVRSGREFDYWGQGTLVTVSSASTKGPSVFPLAPSSKSTSGGTAALGCLVKDYFPEPVTVSWNSGALTSGVHTFPAVLQSSGLYSLSSVVTVPSSSLGTQTYICNVNHKPSNTKVDKKVEPKSCDKTHTCPPCPAPEYQWGPMVFLFPPKPKDTLMISRTPEVTCVVVDVSDEEPEVKFNWYVDGVEVHNAKTKPREEQYNATYRVVSVLTVLHQDWLNGKEYKCKVSNKALPAPIEKTISKAKGQPREPQVCTLPPSRDELTKNQVSLWCLVKGFYPSDIAVEWESNGQPENNYKTTPPVLDSDGSFFLYSKLTVDKSRWQQGNVFSCSVMHEALHNHYTQKSLSLSP heavy 2: QDQLVQSGAEVKKPGASVKVSCKASGFNIKDTYIQWVRQAPGQGLEWMGRIDPLRKQTKYREKFEGRVTITADTSTNTAYMELSSLRSEDTAVYYCVRSGREFDYWGQGTLVTVSSASTKGPSVFPLAPSSKSTSGGTAALGCLVKDYFPEPVTVSWNSGALTSGVHTFPAVLQSSGLYSLSSVVTVPSSSLGTQTYICNVNHKPSNTKVDKKVEPKSCDKTHTCPPCPAPELLGGPSVFLFPPKPKDTLMISRTPEVTCVVVDVSHEEPEVKFNWYVDGVEVHNAKTKPREEQYNSTYRVVSVLTVLHQDWLNGKEYKCKVSNDALPMPIEETISKAKGQPREPQVYTLPPSRCELTKNQVSLSCAVKGFYPSDIAVEWESNGQPENNYKTTPPVLDSDGSFFLVSKLTVDKSRWQQGNVFSCSVMHEALHNHYTQKSLSLSP light: DIQMTQSPSSLSASVGDRVTITCRASQDIHKYIAWYQQKPGQAPRLLIQYTSTLQPGVPSRFSGSGSGTDYTFTISSLQPEDIATYYCLQYEQLRTFGGGTKVEIKRTVAAPSVFIFPPSDEQLKSGTASVVCLLNNFYPREAKVQWKVDNALQSGNSQESVTEQDSKDSTYSLSSTLTLSKADYEKHKVYACEVTHQGLSSPVTKSFNRGEC | 380 nM | 1.2 nM | 0.37 nM | 4200 nM | 190 nM | 0.24 nM | – | – | – | – | – | –

Continued by falling Kd [1], values first:

Row | Kd [1] | Kd [2] | Kd [3] | Kd [4] | Kd [5] | Kd [6] | Kd [7] | Kd [8] | Kd [9] | Kd [10] | Kd [11] | Kd [12] | Binder
3 | 350 nM | 5.1 nM | 1.8 nM | 1200 nM | 280 nM | 0.14 nM | 350 nM | 5.1 nM | 1.8 nM | 1200 nM | 280 nM | 0.14 nM | H240-Kn061/H240-Hl071/L73-k0 (antibody, human IgG1, kappa, heterodimerized anti-epiregulin IgG1; L234Y/L235Y/G236W/H268D/S298A in Kn061, K326D/A330M/K334E in Hl071; also called H240-Kn061/H240-HI071/L73-k0) heavy 1: QDQLVQSGAEVKKPGASVKVSCKASGFNIKDTYIQWVRQAPGQGLEWMGRIDPLRKQTKYREKFEGRVTITADTSTNTAYMELSSLRSEDTAVYYCVRSGREFDYWGQGTLVTVSSASTKGPSVFPLAPSSKSTSGGTAALGCLVKDYFPEPVTVSWNSGALTSGVHTFPAVLQSSGLYSLSSVVTVPSSSLGTQTYICNVNHKPSNTKVDKKVEPKSCDKTHTCPPCPAPEYYWGPSVFLFPPKPKDTLMISRTPEVTCVVVDVSDEDPEVKFNWYVDGVEVHNAKTKPREEQYNATYRVVSVLTVLHQDWLNGKEYKCKVSNKALPAPIEKTISKAKGQPREPQVCTLPPSRDELTKNQVSLWCLVKGFYPSDIAVEWESNGQPENNYKTTPPVLDSDGSFFLYSKLTVDKSRWQQGNVFSCSVMHEALHNHYTQKSLSLSP heavy 2: QDQLVQSGAEVKKPGASVKVSCKASGFNIKDTYIQWVRQAPGQGLEWMGRIDPLRKQTKYREKFEGRVTITADTSTNTAYMELSSLRSEDTAVYYCVRSGREFDYWGQGTLVTVSSASTKGPSVFPLAPSSKSTSGGTAALGCLVKDYFPEPVTVSWNSGALTSGVHTFPAVLQSSGLYSLSSVVTVPSSSLGTQTYICNVNHKPSNTKVDKKVEPKSCDKTHTCPPCPAPELLGGPSVFLFPPKPKDTLMISRTPEVTCVVVDVSHEDPEVKFNWYVDGVEVHNAKTKPREEQYNSTYRVVSVLTVLHQDWLNGKEYKCKVSNDALPMPIEETISKAKGQPREPQVYTLPPSRCELTKNQVSLSCAVKGFYPSDIAVEWESNGQPENNYKTTPPVLDSDGSFFLVSKLTVDKSRWQQGNVFSCSVMHEALHNHYTQKSLSLSP light: DIQMTQSPSSLSASVGDRVTITCRASQDIHKYIAWYQQKPGQAPRLLIQYTSTLQPGVPSRFSGSGSGTDYTFTISSLQPEDIATYYCLQYEQLRTFGGGTKVEIKRTVAAPSVFIFPPSDEQLKSGTASVVCLLNNFYPREAKVQWKVDNALQSGNSQESVTEQDSKDSTYSLSSTLTLSKADYEKHKVYACEVTHQGLSSPVTKSFNRGEC
4 | 340 nM | 9.1 nM | 3.1 nM | 620 nM | 690 nM | 0.073 nM | 340 nM | 9.1 nM | 3.1 nM | 620 nM | 690 nM | 0.073 nM | H240-Kn032/H240-Hl032/L73-k0 (antibody, human IgG1, kappa, anti-epiregulin IgG1 called homodimerized: S239D/A330L/I332E in both H chains, knobs-into-holes; also called H240-Kn032/H240-HI032/L73-k0) heavy 1: QDQLVQSGAEVKKPGASVKVSCKASGFNIKDTYIQWVRQAPGQGLEWMGRIDPLRKQTKYREKFEGRVTITADTSTNTAYMELSSLRSEDTAVYYCVRSGREFDYWGQGTLVTVSSASTKGPSVFPLAPSSKSTSGGTAALGCLVKDYFPEPVTVSWNSGALTSGVHTFPAVLQSSGLYSLSSVVTVPSSSLGTQTYICNVNHKPSNTKVDKKVEPKSCDKTHTCPPCPAPELLGGPDVFLFPPKPKDTLMISRTPEVTCVVVDVSHEDPEVKFNWYVDGVEVHNAKTKPREEQYNSTYRVVSVLTVLHQDWLNGKEYKCKVSNKALPLPEEKTISKAKGQPREPQVCTLPPSRDELTKNQVSLWCLVKGFYPSDIAVEWESNGQPENNYKTTPPVLDSDGSFFLYSKLTVDKSRWQQGNVFSCSVMHEALHNHYTQKSLSLSP heavy 2: QDQLVQSGAEVKKPGASVKVSCKASGFNIKDTYIQWVRQAPGQGLEWMGRIDPLRKQTKYREKFEGRVTITADTSTNTAYMELSSLRSEDTAVYYCVRSGREFDYWGQGTLVTVSSASTKGPSVFPLAPSSKSTSGGTAALGCLVKDYFPEPVTVSWNSGALTSGVHTFPAVLQSSGLYSLSSVVTVPSSSLGTQTYICNVNHKPSNTKVDKKVEPKSCDKTHTCPPCPAPELLGGPDVFLFPPKPKDTLMISRTPEVTCVVVDVSHEDPEVKFNWYVDGVEVHNAKTKPREEQYNSTYRVVSVLTVLHQDWLNGKEYKCKVSNKALPLPEEKTISKAKGQPREPQVYTLPPSRCELTKNQVSLSCAVKGFYPSDIAVEWESNGQPENNYKTTPPVLDSDGSFFLVSKLTVDKSRWQQGNVFSCSVMHEALHNHYTQKSLSLSP light: DIQMTQSPSSLSASVGDRVTITCRASQDIHKYIAWYQQKPGQAPRLLIQYTSTLQPGVPSRFSGSGSGTDYTFTISSLQPEDIATYYCLQYEQLRTFGGGTKVEIKRTVAAPSVFIFPPSDEQLKSGTASVVCLLNNFYPREAKVQWKVDNALQSGNSQESVTEQDSKDSTYSLSSTLTLSKADYEKHKVYACEVTHQGLSSPVTKSFNRGEC
